Among the data in the supplement of paper PMC10567573 are protein stability index values, retold here.

B1: TTC32 (parent)
chain: YSAYIRRCACAASSDESPGSKCSP
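Note: lentivirally expressed fusions sorted by FACS into six bins by GFP to DsRed ratio, PSI derived from sequencing read proportions per bin multiplied by bin number.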

Variants of B1 are the subject of the data set. Description: protein stability index of a GFP-peptide fusion (GPS, HEK-293T) (PSI 1-6); higher = more stable. The conditions noted are these: c terminus: a fixed tail appended.
YSAYIRRCACIASSDESPGSKCSP: the protein stability index is 1.94.
With YSAYIRRCACQASSDESPGSKCSP the figure was 2.03.
The result for YSAYIRRCACMASSDESPGSKCSP reads 1.83; that for YSAYIRRCACVASSDESPGSKCSP, 2.61.
With YSAYIRRCACFASSDESPGSKCSP the figure was 2.11; with YSAYIRRCACGASSDESPGSKCSP, 2.08; with YSAYIRRCACCASSDESPGSKCSP, 2.06.
In the case of YSAYIRRCACRASSDESPGSKCSP, the protein stability index worked out at 1.74.
The result for YSAYIRRCACKASSDESPGSKCSP reads 2.36.
With YSAYIRRCASAASSDESPGSKCSP the figure was 2.92; with YSAYIRRCAQAASSDESPGSKCSP, 2.69; with YSAYIRRCADAASSDESPGSKCSP, 3.2.
The result for YSAYIRRCAHAASSDESPGSKCSP reads 2.92; that for YSAYIRRCAPAASSDESPGSKCSP, 2.88; that for YSAYIRRCAYAASSDESPGSKCSP, 2.17.
Take YSAYIRRCAKAASSDESPGSKCSP: the protein stability index came out at 3.42.
With YSAYIRRCAIAASSDESPGSKCSP the figure was 2.38; with YSAYIRRCAMAASSDESPGSKCSP, 1.97.
On to YSAYIRRCAAAASSDESPGSKCSP, for which the protein stability index was determined as 3.13.
The result for YSAGIRRCACAASSDESPGSKCSP reads 3.35; that for YSAAIRRCACAASSDESPGSKCSP, 2.01.
YSAVIRRCACAASSDESPGSKCSP: the protein stability index worked out at 3.07.
The result for YSAHIRRCACAASSDESPGSKCSP reads 2.12; that for YSATIRRCACAASSDESPGSKCSP, 2.24; that for YSADIRRCACAASSDESPGSKCSP, 3.36.
With YSAFIRRCACAASSDESPGSKCSP the figure was 1.92; with YSARIRRCACAASSDESPGSKCSP, 2.67.
With YSAYIRRCICAASSDESPGSKCSP the figure was 2.38; with YSAYIRRCDCAASSDESPGSKCSP, 2.58; with YSAYIRRCQCAASSDESPGSKCSP, 2.25.
As for YSAYIRRCYCAASSDESPGSKCSP, the protein stability index was 1.55.
The result for YSAYIRRCSCAASSDESPGSKCSP reads 1.98; that for YSAYIRRCWCAASSDESPGSKCSP, 1.45.
The result for YSAYIRRCMCAASSDESPGSKCSP reads 1.96; that for YSAYIRRCLCAASSDESPGSKCSP, 2.26.
With YSAYIRRCKCAASSDESPGSKCSP the figure was 2.38; with YSAYIRRCHCAASSDESPGSKCSP, 1.92.
YSAYIRRCCCAASSDESPGSKCSP: the protein stability index was 1.59.
With YSAYIRRCVCAASSDESPGSKCSP the figure was 2.17.
With YSAYIRRCECAASSDESPGSKCSP the figure was 3.19; with YSAYIRRCPCAASSDESPGSKCSP, 2.16; with YSAYIRRCACACSSDESPGSKCSP, 1.94.
With YSAYIRRCACADSSDESPGSKCSP the figure was 2.49; with YSAYIRRCACAFSSDESPGSKCSP, 2.15; with YSAYIRRCACARSSDESPGSKCSP, 1.93.
Take YSAYIRRCACAGSSDESPGSKCSP: the protein stability index stood at 2.46.
With YSAYIRRCACASSSDESPGSKCSP the figure was 2.48.
The result for YSAYIRRCACATSSDESPGSKCSP reads 1.94; that for YSAYIRRCACAASSDESGGSKCSP, 2.43.
With YSAYIRRCACAASSDESYGSKCSP, the protein stability index was 1.6.
With YSAYIRRCACAASSDESVGSKCSP the figure was 2.07; with YSAYIRRCACAASSDESSGSKCSP, 2.37; with YSAYIRRCACAASSDESKGSKCSP, 2.82.
The result for YSAYIRRCACAASSDESAGSKCSP reads 1.83.
The result for YSAYIRRCACAASSDESEGSKCSP reads 2.36; that for YSAYIRRQACAASSDESPGSKCSP, 3.23.
With YSAYIRRRACAASSDESPGSKCSP, the protein stability index turned out to be 2.99.
With YSAYIRRDACAASSDESPGSKCSP the figure was 3.89.
Turning to YSAYIRRAACAASSDESPGSKCSP, the protein stability index amounted to 3.5.
The result for YSAYIRRPACAASSDESPGSKCSP reads 3.49; that for YSAYIRRIACAASSDESPGSKCSP, 2.21.
The result for YSAYIRRVACAASSDESPGSKCSP reads 2.67; that for YSAYIRRWACAASSDESPGSKCSP, 2.48.
The result for YSAYIRREACAASSDESPGSKCSP reads 3.93.
For YSAYIRRCACAASNDESPGSKCSP, the protein stability index came to 2.65.
For the variant YSAYIRRCACAASQDESPGSKCSP, the protein stability index stood at 2.19.
The result for YSAYIRRCACAASADESPGSKCSP reads 2.16; that for YSAYIRRCACAASLDESPGSKCSP, 2.
The result for YSAYIRRCACAASTDESPGSKCSP reads 1.93; that for YSAYIRRCACAASIDESPGSKCSP, 1.96; that for YSAYIRRCACAASMDESPGSKCSP, 1.4.
The result for YSAYIRRCACAASPDESPGSKCSP reads 2.29.
For YSAYIRRCACAASSDESPGSKFSP, the protein stability index came out at 1.69.
With YSAYIRRCACAASSDESPGSKTSP the figure was 2.57; with YSAYIRRCACAASSDESPGSKMSP, 1.71; with YSAYIRRCACAASSDESPGSKISP, 1.85.
With YSAYIRRCACAASSDESPGSKVSP the figure was 2.1; with YSAYIRRCACAASSDESPGSKGSP, 2.35; with YSAYIRRCACAASSDESPGSKNSP, 2.28.
On to YSAYIRRCACAASSDESPGSKDSP, for which the protein stability index is 2.22.
The result for YSAYIRRCACAASSDESPGSKASP reads 2.72; that for YSAYIRRCACAASSDESPGSKPSP, 2.02.
With YSAYIRRCACAASSDESPGTKCSP the figure was 2.14; with YSAYIRRCACAASSDESPGGKCSP, 1.97.
With YSAYIRRCACAASSDESPGQKCSP the figure was 2.21.
On to YSAYIRRCACAASSDESPGEKCSP, for which the protein stability index was found to be 2.15.
With YSAYIRRCACAASSDESPGNKCSP the figure was 2.11; with YSAYIRRCACAASSDESPGYKCSP, 1.61.
Take YSAYIRRCACAASSDESPGRKCSP: the protein stability index was determined as 1.65.
As for YSAYIRRCACAASSDESPVSKCSP, the protein stability index worked out at 1.03.
With YSAYIRRCACAASSDESPESKCSP, the protein stability index is 2.31.
With YSAYIRRCACAASSDESPASKCSP the figure was 2.02; with YSAYIRRCACAASSDESPSSKCSP, 1.51; with YSAYIRRCACAASSDESPYSKCSP, 2.35.
